Patent US20260109773A1 (HARPOON THERAPEUTICS, published 2026)

T1: human BCMA protein (human, UniProt Q02223 1-54, limits assumed)
T1 sequence: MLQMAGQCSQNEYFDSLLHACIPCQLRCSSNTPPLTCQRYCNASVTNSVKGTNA

B1: 253BH10 trispecific protein (other, not shown: large carriers)
chain: QVQLVESGGGLVQPGESLRLSCAASTNIFSISPMGWYRQAPGKQRELVAAIHGFSTLYADSVKGRFTISRDNAKNTIYLQMNSLKPEDTAVYYCNKVPWGDYHPRNVYWGQGTQVTVSS
notes: also called molecule with the parental CDRs
B2: cynomolgus CD3ε-Fc (Fc fusion, UniProt Q95LI5 22-117, looked up)
chain: QDGNEEMGSITQTPYQVSISGTTVILTCSQHLGSEAQWQHNGKNKEDSGDRLFLPEFSEMEQSGYYVCYPRGSNPEDASHHLYLKARVCENCMEMD
notes: loaded on streptavidin tips; not shown: Fc part
B3: cynomolgus serum albumin (other, UniProt A2V9Z4 25-608, looked up)
chain: DTHKSEVAHRFKDLGEEHFKGLVLVAFSQYLQQCPFEEHVKLVNEVTEFAKTCVADESAENCDKSLHTLFGDKLCTVATLRETYGEMADCCAKQEPERNECFLQHKDDNPNLPPLVRPEVDVMCTAFHDNEATFLKKYLYEVARRHPYFYAPELLFFAARYKAAFAECCQAADKAACLLPKLDELRDEGKASSAKQRLKCASLQKFGDRAFKAWAVARLSQKFPKAEFAEVSKLVTDLTKVHTECCHGDLLECADDRADLAKYMCENQDSISSKLKECCDKPLLEKSHCLAEVENDEMPADLPSLAADYVESKDVCKNYAEAKDVFLGMFLYEYARRHPDYSVMLLLRLAKAYEATLEKCCAAADPHECYAKVFDEFQPLVEEPQNLVKQNCELFEQLGEYKFQNALLVRYTKKVPQVSTPTLVEVSRNLGKVGAKCCKLPEAKRMPCAEDYLSVVLNRLCVLHEKTPVSEKVTKCCTESLVNRRPCFSALELDEAYVPKAFNAETFTFHADMCTLSEKEKQVKKQTALVELVKHKPKATKEQLKGVMDNFAAFVEKCCKADDKEACFAEEGPKFVAASQAALA
notes: loaded on streptavidin tips
B4: human BCMA on BCMA-expressing cell lines (receptor)
chain: MLQMAGQCSQNEYFDSLLHACIPCQLRCSSNTPPLTCQRYCNASVTNSVKGTNAILWTCLGLSLIISLAVFVLMFLLRKINSEPLKDEFKNTGSGLLGMANIDLEKSRTGDEIILPRGLEYTVEECTCEDCIKSKPKVDSDHCFPLPAMEEGATILVTTKTNDYCKSLPAALSATEIEKSISAR
notes: BCMA as expressed by human tumour cell lines; also called BCMA expressing cells (EJM, Jeko1, MOLP-8, OPM-2, NCI-H929, RPMI-8226)
B5: human CD3ε-Fc (Fc fusion, UniProt P07766 23-126, looked up)
chain: DGNEEMGGITQTPYKVSISGTTVILTCPQYPGSEILWQHNDKNIGGDEDDKNIGSDEDHLSLKEFSELEQSGYYVCYPRGSKPEDANFYLYLRARVCENCMEMD
notes: as for B2

Tests used:
[1] = target: B4; experiment: cell-based or functional assay
human BCMA protein = target: T1, human BCMA protein; experiment: affinity to human BCMA protein; method not stated
02B05 TriTAC [2] = target: T2, 02B05 TriTAC; experiment: Octet; 2.5 nM cynomolgus CD3ε-Fc on streptavidin tips; 15 mg/ml HSA; n=2
T2 construct: TriTAC trispecific; His6 in entry; also called exemplary BCMA targeting trispecific protein (02B05)
Procedure: (§1) The affinities were measured using an Octet instrument. For these measurements, streptavidin tips were first loaded with 2.5 nM human BCMA-Fc, 2.5 nM cynomolgous BCMA-Fc, 2.5 nM human CD3ε-Fc, 2.5 nM cynomolgus CD3ε-Fc, 50 nM human serum albumin (HSA), 50 nM cynomolgus serum albumin, or 50 nM mouse serum albumin. […] Average calculated KD values from these studies are provided in Table 4 (n indicates the number of independent measurements, n/d indicates no binding detected under the conditions tested).

02B05 TriTAC [3] = target: T2, 02B05 TriTAC; experiment: Octet; 50 nM cynomolgus serum albumin on streptavidin tips; n=1
Procedure: as §1

02B05 TriTAC [4] = target: T2, 02B05 TriTAC; experiment: flow cytometry on NCI-H929 cells (BCMA RNA FPKM 1931); bound protein detected with an Alexa Fluor 647 antibody against the anti-albumin domain; negative control: GFP trispecific protein
02B05 TriTAC [5] = target: T2, 02B05 TriTAC; experiment: Octet; 2.5 nM human CD3ε-Fc on streptavidin tips; 15 mg/ml HSA; n=2
Procedure: as §1

T2 sequence (chain, as listed by the source): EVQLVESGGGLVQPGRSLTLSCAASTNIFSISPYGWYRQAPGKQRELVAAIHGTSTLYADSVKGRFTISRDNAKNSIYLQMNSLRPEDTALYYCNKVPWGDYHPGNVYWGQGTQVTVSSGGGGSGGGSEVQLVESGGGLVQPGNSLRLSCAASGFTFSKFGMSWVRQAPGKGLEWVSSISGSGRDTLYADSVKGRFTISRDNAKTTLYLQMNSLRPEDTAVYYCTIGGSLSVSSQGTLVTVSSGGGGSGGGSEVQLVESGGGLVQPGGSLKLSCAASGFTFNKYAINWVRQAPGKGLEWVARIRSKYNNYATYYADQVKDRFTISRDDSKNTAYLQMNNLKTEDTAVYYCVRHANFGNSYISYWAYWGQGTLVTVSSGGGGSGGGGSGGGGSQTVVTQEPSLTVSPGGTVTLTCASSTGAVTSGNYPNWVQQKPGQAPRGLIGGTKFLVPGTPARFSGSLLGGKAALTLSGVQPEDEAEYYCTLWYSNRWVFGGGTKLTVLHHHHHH

Binder: B1
- TDCC EC50, EJM cells [1]: 0.0529 nM
- Kd (human BCMA protein): 27.7 nM

Binder: B2
- Kd (02B05 TriTAC [2]): 7.8 nM

Binder: B3
- Kd (02B05 TriTAC [3]): 7.5 nM

Binder: B4
- binding result (02B05 TriTAC [4]): binds

Binder: B5
- Kd (02B05 TriTAC [5]): 8 nM
